Test results: patent US20200347130A1 (JIANGSU HENGRUI MEDICINE, published 2020)

B1: h1719-010 (antibody, V domains shown)
VH: EVTLKESGPVLVKPTETLTLTCTVSGFSLSSYGVSWVRQPPGKGLEWLGVIWGDGNTNYHSVLISRLTISKDTSKSQVVLTLTNMDPVDTATYYCAKQNYYGSRYGYPIDYWGQGTTVTVSS
VL: DIQMTQSPSSVSASVGDRVTITCKATQDVGTAVAWYQQKPGKAPKLLIYWASTRHTGVPSRFSGSGSGTDFTLTISSLQPEDFATYYCQQYGSSVLTFGGGTKVEIK
notes: Only variable regions are tied to this name
B2: ch1720 (antibody, human IgG4 S228P, kappa, V domains shown)
VH: EFQLQQSGPELVKPGASVKISCKASAYSLTDYNMNWVKQSNGKSLEWIGVINPSYGISSYNQKFKGKATLTVDQSSSTAYMHLNSLTSEDSAVYYCARQLRLPGYFDVWGTGTTVTVSS
VL: DIKMTQSPSSKNASLGERVTITCKASQDINSYLNWFQQKPGKSPKTLIYRASRLVDGVPSRFSGSGSGQDYSLTISSLEYEDMGIYYCLKYDEFPYTFGGGTKLEIKR
notes: also called chimeric antibody corresponding to m1720
B3: ch1719 (antibody, human IgG4 S228P, kappa, V domains shown)
VH: QVQLKESGPGLVAPSQSLSITCTVSGFSLISYGVSWVRQPPGKGLEWLGVIWGDGNTNYHSVLISRLSIRKDDSKSQVFLKLNSLQTDDTATYYCAKNNYYGSRYGYPMDYWGQGTSVTVSS
VL: DIVMTQSHKFMSTSVGDRVSITCKATQDVGTAVAWYQQKPGHSPKLLIYWASTRHTGVPERFTGSGSGTDFTLTIDNVQSEDLADYFCQQYGSSVLTFGAGTKVELRR
notes: also called chimeric antibody corresponding to m1719

Legend:
[1] = biological target: T1, Biotinylated CD96 antigen (human, UniProt P40200-2 22-503, limits assumed, biotinylated); test: competition ELISA: antibody B pre-incubated with biotinylated CD96 antigen, added to a plate coated with antibody A, HRP-streptavidin, OD450; competitor: coated h1718-012
T1 sequence (looked up): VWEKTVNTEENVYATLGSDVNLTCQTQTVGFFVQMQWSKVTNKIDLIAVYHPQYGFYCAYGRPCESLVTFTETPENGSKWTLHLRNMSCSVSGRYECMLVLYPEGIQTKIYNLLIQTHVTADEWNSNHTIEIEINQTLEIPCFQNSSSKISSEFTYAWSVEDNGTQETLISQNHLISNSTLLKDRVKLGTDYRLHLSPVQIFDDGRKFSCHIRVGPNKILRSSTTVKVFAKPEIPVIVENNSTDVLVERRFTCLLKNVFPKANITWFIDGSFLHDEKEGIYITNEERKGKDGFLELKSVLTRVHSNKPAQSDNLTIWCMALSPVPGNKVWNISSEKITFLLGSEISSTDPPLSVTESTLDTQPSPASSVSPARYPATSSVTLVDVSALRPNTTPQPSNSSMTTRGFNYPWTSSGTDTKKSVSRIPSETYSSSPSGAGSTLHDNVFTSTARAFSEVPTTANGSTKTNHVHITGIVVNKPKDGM
Experimental: Competitive assays of different antibodies binding to CD96 protein were used to classify binding epitopes of the antibodies. The specific experimental methods are as follows:
Antibody A was diluted to a concentration of 2 μg/ml with PBS buffer (Shanghai Yuanpei Biotechnology Co., Ltd. Cat No. B320), pH 7.4, added to a 96-well microtiter plate (Corning, Cat No. CLS3590-100EA) at a volume of 50 μl/well, and coated at 4° C. overnight. After discarding the liquid, 250 μl/well of 5% skim milk (BD skim milk, Cat No. 232100) blocking solution diluted with PBS was added, and the plate was incubated at 37° C. for 3 hours. After blocking, the blocking solution was discarded, and the plate was washed 5 times with PBST buffer (pH 7.4 PBS containing 0.05% tween-20) and stored for later use. Antibody B was diluted to 40 μg/ml and 8 μg/ml with 1% BSA, and Biotinylated CD96 antigen was simultaneously diluted to 4 μg/mL. Subsequently, antibody B and antigen were mixed in a 1:1 volume ratio, pre-incubated at 37° C. for 45 minutes, added into the enzyme plate coated with antibody A, thus incubating the plate in an incubator at 37° C. for 1.5 hours. […] The absorption value was read at 450 nm with a NOVOStar microplate reader, and the OD value was used to determine whether A and B CD96 antibodies compete with each other. […]

[2] = biological target: T2, CD96 epitope peptide #22 (325-344) (human); test: peptide ELISA ('-' indicates no binding, table note)
T2 peptide: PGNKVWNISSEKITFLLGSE
Experimental: (§1) The epitopes recognized by anti-CD96 antibody were detected by the assay of binding the antibody to different polypeptide fragments of CD96 protein. The fragments of different polypeptides of the CD96 antigen were coated on the microtiter plate. The signal density after the antibody was added was used to judge the binding activity of the antibody and the polypeptide. The specific experimental method is as follows:
(§2) The polypeptides were diluted to a concentration of 20 μg/ml with PBS buffer (Shanghai Yuanpei Biotechnology Co., Ltd. Cat No. B320), pH 7.4, added to a 96-well microtiter plate (Corning, Cat No. CLS3590-100EA) at a volume of 50 μl/well, and coated at 4° C. overnight. After discarding the liquid, 250 μl/well of 5% skim milk (BD skim milk, Cat No. 232100) blocking solution diluted with PBS was added, and the plate was incubated in an incubator at 37° C. for 3 hours. After blocking, the blocking solution was discarded, and the plate was washed 5 times with PBST buffer (pH 7.4 PBS containing 0.05% tween-20). 50 μl/well of different concentrations of the antibodies to be tested (hybridoma purification antibody or humanized antibody) diluted with sample dilution was added, and the plate was incubated in an incubator at 37° C. for 2 hours. […] After washing the plate 5 times with PBST, 50 μl/well of TMB chromogenic substrate (KPL, Cat No. 52-00-03) was added, the plate was incubated at room temperature for 5-15 min, followed by adding 50 μl/well of 1M H₂SO₄ to stop the reaction. The absorption value was read at 450 nm with a microplate reader (Thermo Scientific MuLtiskan MK3), and the epitopes that CD96 antibody can recognize were analyzed.

[3] = biological target: T3, CD96 epitope peptide #2 (32-51) (human); test: as above
T3 peptide: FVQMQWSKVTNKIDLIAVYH
Experimental: as §1, §2

[4] = biological target: T4, CD96 epitope peptide #15 (220-239) (human); test: as above
T4 peptide: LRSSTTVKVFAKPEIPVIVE
Experimental: as §1, §2

[5] = biological target: T5, CD96 epitope peptide #11 (166-185) (human); test: as above
T5 peptide: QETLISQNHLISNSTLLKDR
Experimental: as §1, §2

[6] = biological target: T6, CD96 epitope peptide #16 (235-254) (human); test: as above
T6 peptide: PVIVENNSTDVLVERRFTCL
Experimental: as §1, §2

[7] = biological target: T7, CD96 epitope peptide #17 (250-269) (human); test: as above
T7 peptide: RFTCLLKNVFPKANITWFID
Experimental: as §1, §2

[8] = biological target: T8, CD96 epitope peptide #8 (122-141) (human); test: as above
T8 peptide: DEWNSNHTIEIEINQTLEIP
Experimental: as §1, §2

[9] = biological target: T9, CD96 epitope peptide #7 (107-126) (human); test: as above
T9 peptide: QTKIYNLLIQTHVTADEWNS
Experimental: as §1, §2

[10] = biological target: T10, CD96 epitope peptide #1 (17-36) (human); test: as above
T10 peptide: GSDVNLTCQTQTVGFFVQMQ
Experimental: as §1, §2

[11] = biological target: T11, CD96 epitope peptide #5 (77-86) (human); test: as above
T11 peptide: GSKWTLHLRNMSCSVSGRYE
Experimental: as §1, §2

| Binder | IC50 (read off the curve) [1] [nM] | binding result [2] | binding result [3] | binding result [4] | binding result [5] | binding result [6] | binding result [7] | binding result [8] | binding result [9] | binding result [10] | binding result [11] |
| --- | --- | --- | --- | --- | --- | --- | --- | --- | --- | --- | --- |
| B1 | ~0.6 | – | – | – | – | – | – | – | – | – | – |
| B2 | – | no binding | no binding | no binding | no binding | no binding | no binding | no binding | no binding | no binding | no binding |
| B3 | – | no binding | no binding | no binding | no binding | no binding | no binding | no binding | no binding | no binding | no binding |
